Six molecules from US20140179604A1 (U S A REPRESENTED BY THE DEPARTMENT OF VETERANS AFFAIRS, published 2014) can be followed below.

Experiment [1] addresses T1, GHRH receptor (membrane receptors of human anterior pituitary cells) (human) (UniProt Q02643).
T1 sequence (looked up): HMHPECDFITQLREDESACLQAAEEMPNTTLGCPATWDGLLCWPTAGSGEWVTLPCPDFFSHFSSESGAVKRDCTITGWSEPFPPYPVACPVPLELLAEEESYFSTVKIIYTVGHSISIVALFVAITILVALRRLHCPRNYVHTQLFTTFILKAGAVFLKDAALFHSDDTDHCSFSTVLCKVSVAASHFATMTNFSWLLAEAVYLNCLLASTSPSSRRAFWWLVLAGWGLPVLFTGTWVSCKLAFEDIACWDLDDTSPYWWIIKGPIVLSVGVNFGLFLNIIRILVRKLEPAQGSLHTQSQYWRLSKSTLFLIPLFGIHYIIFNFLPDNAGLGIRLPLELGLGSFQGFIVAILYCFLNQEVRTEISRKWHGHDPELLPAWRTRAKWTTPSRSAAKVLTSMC
Put plainly: competition with 125I-[His1,Nle27]hGHRH(1-32)NH2, human pituitary membranes.

The target of experiment [2] is T1, GHRH receptor (membrane receptors of human anterior pituitary cells) (human). Put plainly: competition with 125I-JV-1-42, human pituitary membranes.

Non-standard residues stand in square brackets, D forms with d. No end group written: not given here. *: point of attachment. Desaminotyrosyl = O=C(CCc1ccc(O)cc1)*; NMeY = CN[C@@H](Cc1ccc(O)cc1)C(=O)O; Nle = CCCC[C@H](N)C(=O)O; Orn = NCCC[C@H](N)C(=O)O; Abu = CC[C@H](N)C(=O)O; Ava = NCCCCC(=O)O

The term IC50 denotes the concentration that gives 50% inhibition. A low value points to inhibition by little substance. As for “P-27404 [N-Me-Tyr^1, D-Ala^2, Fpa5^6, Orn^12, Abu^15, Orn^21, Nle^27, Asp^28]hGHRH(1-29)NH-CH3 (peptide)”, in experiment [1], the IC50 came to 1.12 nM, the Relative affinity (Binding potency) compared to JI-38 stood at 2.45 JI-38 = 1 and the Relative affinity (Binding potency) compared to hGHRH(1-29) (hGHRH(1-29)NH2 = 1) worked out at 6.83. In experiment [2], this molecule returned an IC50 of 0.87 nM and a Relative affinity (Binding potency) vs JI-38 of 5 JI-38 = 1.

B1: P-22325 [N-Me-Tyr^1, Gln^8, Orn^12, Abu^15, Orn^21, Nle^27, Asp^28, Apa^30]hGHRH(1-30)NH2 (peptide, from a related filing)
peptide: [NMeY]ADAIFTQSYR[Orn]VL[Abu]QLSAR[Orn]LLQDI[Nle]DR[Ava]-NH2
modifications: N-terminus assumed
SMILES: CCCC[C@H](NC(=O)[C@@H](NC(=O)[C@H](CC(=O)O)NC(=O)[C@H](CCC(N)=O)NC(=O)[C@H](CC(C)C)NC(=O)[C@H](CC(C)C)NC(=O)[C@H](CCCN)NC(=O)[C@H](CCCNC(=N)N)NC(=O)[C@H](C)NC(=O)[C@H](CO)NC(=O)[C@H](CC(C)C)NC(=O)[C@H](CCC(N)=O)NC(=O)[C@H](CC)NC(=O)[C@H](CC(C)C)NC(=O)[C@@H](NC(=O)[C@H](CCCN)NC(=O)[C@H](CCCNC(=N)N)NC(=O)[C@H](Cc1ccc(O)cc1)NC(=O)[C@H](CO)NC(=O)[C@H](CCC(N)=O)NC(=O)[C@@H](NC(=O)[C@H](Cc1ccccc1)NC(=O)[C@@H](NC(=O)[C@H](C)NC(=O)[C@H](CC(=O)O)NC(=O)[C@H](C)NC(=O)[C@H](Cc1ccc(O)cc1)NC)[C@@H](C)CC)[C@@H](C)O)C(C)C)[C@@H](C)CC)C(=O)N[C@@H](CC(=O)O)C(=O)N[C@@H](CCCNC(=N)N)C(=O)NCCCCC(N)=O
In experiment [2], B1 displayed an IC50 of 3.8 nM and a Relative affinity (Binding potency) vs JI-38 of 1.14 JI-38 = 1.

B2: P-25503 [N-Me-Tyr^1, Abu^2, Orn^12, Abu^15, Orn^21, Nle^27, Gab^30]hGHRH(1-30)NH2 (peptide, from a related filing)
peptide: YADAIFTNSYRKVLGQLSARKLLQDIMSRQ
modifications: N-Me-Tyr^1; Abu^2; Orn^12; Abu^15; Orn^21; Nle^27; Gab^30 (in place of Gln^30); C-terminal -NH2
In experiment [2], B2 displayed an IC50 of 1.18 nM and a Relative affinity (Binding potency) vs JI-38 of 3.67 JI-38 = 1.
Turning to [NMeY]ADAIFTQSYR[Orn]VL[Abu]QLSAR[Orn]LLQDI[Nle]SR-NHMe (peptide, from a related filing) [P-27405 [N-Me-Tyr^1, Gln^8, Orn^12, Abu^15, Orn^21, Nle^27]hGHRH(1-29)NH-CH3], in experiment [1], the half-maximal inhibitory concentration (IC50) stood at 2.51 nM, the Relative affinity (Binding potency) compared to JI-38 stood at 1.09 JI-38 = 1 and the Relative affinity (Binding potency) compared to hGHRH(1-29) (hGHRH(1-29)NH2 = 1) worked out at 3.04. In experiment [2], the IC50 came out at 1.08 nM and the Relative affinity (Binding potency) vs JI-38 was 4.03 JI-38 = 1.

B3: P-27413 [Dat^1, Gln^8, His^11, Orn^12, Abu^15, His^20, Orn^21, Nle^27, Asp^28]hGHRH(1-29)NH-CH3 (peptide, from a related filing)
peptide: [Desaminotyrosyl]ADAIFTQSYH[Orn]VL[Abu]QLSAH[Orn]LLQDI[Nle]DR-NHMe
SMILES: CCCC[C@H](NC(=O)[C@@H](NC(=O)[C@H](CC(=O)O)NC(=O)[C@H](CCC(N)=O)NC(=O)[C@H](CC(C)C)NC(=O)[C@H](CC(C)C)NC(=O)[C@H](CCCN)NC(=O)[C@H](Cc1c[nH]cn1)NC(=O)[C@H](C)NC(=O)[C@H](CO)NC(=O)[C@H](CC(C)C)NC(=O)[C@H](CCC(N)=O)NC(=O)[C@H](CC)NC(=O)[C@H](CC(C)C)NC(=O)[C@@H](NC(=O)[C@H](CCCN)NC(=O)[C@H](Cc1c[nH]cn1)NC(=O)[C@H](Cc1ccc(O)cc1)NC(=O)[C@H](CO)NC(=O)[C@H](CCC(N)=O)NC(=O)[C@@H](NC(=O)[C@H](Cc1ccccc1)NC(=O)[C@@H](NC(=O)[C@H](C)NC(=O)[C@H](CC(=O)O)NC(=O)[C@H](C)NC(=O)CCc1ccc(O)cc1)[C@@H](C)CC)[C@@H](C)O)C(C)C)[C@@H](C)CC)C(=O)N[C@@H](CC(=O)O)C(=O)N[C@@H](CCCNC(=N)N)C(=O)NC
In experiment [2], B3 had an IC50 of 2.45 nM and a Relative affinity (Binding potency) vs JI-38 of 1.78 JI-38 = 1.
In experiment [1], [NMeY]ADAIFTQSYR[Orn]VL[Abu]QLSAR[Orn]LLQDI[Nle]DR-NHMe (peptide, from a related filing) [P-27406 [N-Me-Tyr^1, Gln^8, Orn^12, Abu^15, Orn^21, Nle^27, Asp^28]hGHRH(1-29)NH-CH3] came in with an IC50 of 0.93 nM, a Relative affinity (Binding potency) compared to JI-38 of 2.95 JI-38 = 1 and a Relative affinity (Binding potency) compared to hGHRH(1-29) (hGHRH(1-29)NH2 = 1) of 8.22. In experiment [2], this molecule returned an IC50 of 0.3 nM and a Relative affinity (Binding potency) vs JI-38 of 14.5 JI-38 = 1.
